Patent US12391768B2, “Antibodies to ticagrelor and methods of use” (MEDIMMUNE LIMITED, priority 2014, dated 2025)
Like-named read-outs stand apart in the source and are kept apart here.

What was measured:
TICA0072 Fab = experiment: HTRF competition binding selectivity assay, TICA0072 His-Fab; set-up: species or system human
Procedure: Total Binding control wells were set up which contained all of the assay components above except that 5 ul assay buffer was added in place of the test selectivity compound addition. Negative Binding control wells were set up which contained all of the assay components included in the Total Binding control wells except that 5ul assay buffer was added in place of the His-Fab addition. Test compound serial titrations were either ½ or ⅓ depending on the particular experiment and top final assay compound concentrations were optimized on a compound specific basis. The concentration of biotinylated ticagrelor and His-Fab was optimized on a Fab specific basis in separate experiments. For the four Fabs investigated at the end of the lead isolation phase (TICA0010, TICA0049, TICA0053 and TICA0072) the final assay reagent concentrations used are set out in Table 1 below:
For the two Fabs investigated at the end of the lead optimization phase (TICA0162 and TICA0212) the final assay reagent concentrations used were 5nM biotinylated ticagrelor and 1 nM His Fab in both cases. […] In order to enable subsequent normalization of data to correct for any such vehicle related effects parallel titrations of DMSO alone were included in most experiments in which the final assay DMSO concentrations mirrored those of the test compound serial dilutions. At the end of the set up procedure that assay was incubated for 3hrs at RT before being read on an Envision plate reader using a standard read protocol.
The negative ratio value used in the calculation of % Delta F was derived from the Negative Binding control wells. % Delta F values were then used to calculate % Specific Binding values according to the equation below: Specific Binding (%)={(Sample Delta F−Negative Binding Delta F)/(Total Binding Delta F−Negative Binding Delta F)}×100
For standard calculations of % Specific Binding Total Binding Delta F was taken from Total Binding control wells which contained all of the aforementioned components of the assay but without inclusion of any competing test compound.
In those experiments where DMSO normalization was applied DMSO normalised % Specific Binding was calculated essentially according to the equation above except that in this case Total Binding Delta F was taken from wells containing all of the components in the Total Binding control wells as well as DMSO at a concentration equivalent to that in the relevant sample well.
In a second series of experiments further selectivity data was generated for TICA0049 and TICA0072 Fabs in which a subset of four of the twelve compounds listed in FIG. 4 were retested along with ticagrelor, TAM and TIM and several adenosine related compounds. Here, in a refinement to the earlier investigations in Table 2, experiments were designed in order to enable normalisation of percent specific binding values to correct for any non-specific vehicle related effects due to DMSO. Example plotted data from this second series of experiments is shown in FIG. 5A-F along with tabulated IC50 values in Table 3.

[1] = system: ticagrelor mediated inhibition of ADP-induced platelet aggregation; experiment: Light transmission aggregometry in human PRP, reversal of ticagrelor; type: cell-based; details: for mean extent of reversal of ticagrelor mediated inhibition: Example 10, 1 μM Fab, n=3
Procedure: The extent and potency of TICA0212/MEDI2452 to reverse ticagrelor or TAM mediated inhibition of ADP-induced platelet aggregation was determined in human platelet rich plasma (PRP) using light transmission aggregometry.
For the in vitro human PRP assay, blood was collected from fasted healthy volunteers by vein puncture of vena cephalica. […] The anticoagulated human blood was centrifuged at 240× g for 15 min. PRP was carefully removed and transferred to a clean vial. Platelet poor plasma (PPP) was prepared by centrifugation of the PRP at 2000× g for 15 min. Light transmission aggregometry (LTA) was evaluated in PRP by the Platelet Aggregation Profiler (PAP-8E, Bio/Data Corporation, PA, USA.). Zero % aggregation was defined as the light transmission of PRP and 100% aggregation was defined as the light transmission of PPP.
PRP was preincubated with 1 μM ticagrelor or TAM for 1 hour before co-incubating with different concentrations of TICA0212 or an isotype control Fab for 30 minutes. Platelet aggregation was initiated by addition of 20 uM ADP and was continuously recorded for 6 min. Data for final aggregation (FA) extent at 6 min was analysed.
The time of onset of TICA0212/MEDI2452 to reverse ticagrelor or TAM was determined in human platelet rich plasma (PRP) using light transmission aggregometry as in example 8. PRP was preincubated with 1 μM ticagrelor or TAM for 1 hour before adding 1 μM TICA0212/MEDI2452 and co-incubating for 5, 10, 15, 30 and 60 min, or adding an isotype control Fab for 30 min. Platelet aggregation was initiated by addition of 20 μM ADP and was continuously recorded for 6 min. Data for final aggregation (FA) extent at 6 min was analyzed.

Molecule | IC50 (TICA0072 Fab; first series (Table 2), not DMSO normalised, read-out: IC50 (uM) for inhibition of biotinylated ticagrelor binding to TICA0072 his-Fab) | IC50 (TICA0072 Fab; second series (Table 3), DMSO normalised, read-out: IC50 in competition binding selectivity studies, TICA0072) | IC50 ([1]; 1 μM ticagrelor, 20 μM ADP, human PRP, 30 min co-incubation, mean n=5, read-out: IC50, half-maximum reversal of ticagrelor mediated inhibition of ADP-induced platelet aggregation) | mean extent of reversal of ticagrelor ([1]; Example 9, 1:1 conditions (1 μM Fab: 1 μM ticagrelor), 30 min incubation) | mean extent of reversal of ticagrelor mediated inhibition ([1]; 1 μM ticagrelor, co-incubation 5 min) | mean extent of reversal of ticagrelor mediated inhibition ([1]; 1 μM ticagrelor, co-incubation 10 min) | mean extent of reversal of ticagrelor mediated inhibition ([1]; 1 μM ticagrelor, co-incubation 15 min) | mean extent of reversal of ticagrelor mediated inhibition ([1]; 1 μM ticagrelor, co-incubation 30 min) | mean extent of reversal of ticagrelor mediated inhibition ([1]; 1 μM ticagrelor, co-incubation 60 min)
CCCSc1nc(N[C@@H]2C[C@H]2c2ccc(F)c(F)c2)c2nnn([C@@H]3C[C@H](OCCO)[C@@H](O)[C@H]3O)c2n1 [Ticagrelor, (1S,2S,3R,5S)-3-[7-{[(1R,2S)-2-(3,4-difluorophenyl)cyclopropyl]amino}-5-(propylthio)-3H-[1,2,3]triazolo[4,5-d]pyrimidin-3-yl]-5-(2-hydroxyethoxy)cyclopentane-1,2-diol] | 0.113 µM | 0.356 µM |  |  |  |  |  |  | 
TICA0212: combination of TICA0162 and TICA0152; VH SEQ ID NO:72, VL SEQ ID NO:77 (antibody, listed as Homo sapiens, V domains shown) VH: QVQLQESGAEVKKPGSSVRVSCKASGGTFDSYSIHWVRQAPGQGLEWMGGIIPAFGTLSSAQDFQARVTISADKSTSTAYMELSGLRSEDTAVYYCARGSFDYYFWSASHPPNDALAIWGQGTLVTVSS VL: QSVVTQPPSVSAAPGQKVTISCSGSNSDIGNNYVSWYQQLPGTAPKLLIYDNNKRPSGIPDRFSGSKSGTSATLAITGLQAGDEADYYCGTWLYDRAVGLFGGGTKVTVL |  |  | 640 nM | 78% | 85% | 69% | 74% | 80% | 81%
